Source: patent publication US20190183976A1
Each block holds one substance with its values, some of them ahead of it.

Columns and labels:
CXCR4 (human) = CXCR4 (human) (UniProt P61073); experiment: cell-based or functional assay
CXCR4-VN (human) = CXCR4-VN (human) (UniProt P61073); experiment: BiFC, U-2 OS cells, CXCR4-VN & GPCRx-VC; score=(positive cells/total cells)x100
Chain of CXCR4-VN (human) (P61073 whole entry): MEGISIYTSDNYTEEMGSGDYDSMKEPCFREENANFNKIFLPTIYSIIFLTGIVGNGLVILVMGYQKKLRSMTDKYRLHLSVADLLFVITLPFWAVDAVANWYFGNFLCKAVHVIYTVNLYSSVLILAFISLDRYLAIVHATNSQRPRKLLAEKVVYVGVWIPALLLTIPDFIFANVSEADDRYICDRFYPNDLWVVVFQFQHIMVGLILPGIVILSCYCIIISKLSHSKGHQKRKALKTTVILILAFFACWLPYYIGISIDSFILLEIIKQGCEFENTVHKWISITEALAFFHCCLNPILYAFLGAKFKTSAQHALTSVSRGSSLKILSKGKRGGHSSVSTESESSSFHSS

Chain of CXCR4 (human) (P61073 whole entry): as above
Chain of CCR5-VC, P51681 1-352 (receptor; other documents disagree on this pair) (P51681 whole entry): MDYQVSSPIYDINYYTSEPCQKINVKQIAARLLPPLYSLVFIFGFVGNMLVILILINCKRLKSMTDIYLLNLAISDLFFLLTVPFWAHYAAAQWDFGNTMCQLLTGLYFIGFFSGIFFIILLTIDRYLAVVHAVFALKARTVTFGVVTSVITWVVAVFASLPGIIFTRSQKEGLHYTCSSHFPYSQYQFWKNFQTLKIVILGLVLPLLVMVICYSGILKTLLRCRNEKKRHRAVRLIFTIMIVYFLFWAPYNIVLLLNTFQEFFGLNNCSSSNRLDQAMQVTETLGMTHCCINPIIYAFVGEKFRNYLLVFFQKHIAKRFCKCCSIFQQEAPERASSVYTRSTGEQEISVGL

IC50 of Ca2+ response; MDA-MB-231 expressing CXCR4+ADRB2; + carvedilol 10 µM; CXCL12 20 nM + salmeterol 1 µM (CXCR4 (human)): 2.78 nM
IC50 of Ca2+ response; MDA-MB-231 expressing CXCR4+ADRB2; no carvedilol; CXCL12 20 nM + salmeterol 1 µM (CXCR4 (human)): 13.9 nM
IC50 of Ca2+ response; MDA-MB-231 expressing CXCR4 alone; CXCL12 20 nM + salmeterol 1 µM (CXCR4 (human)): 80.2 nM
Substance: 12G5 (antibody)

IC50 of Ca2+ response; MDA-MB-231 with CXCR4+ADCYAP1R1; CXCL12 20 nM + PACAP-38 1 nM; + M65 1 µM (CXCR4 (human)): 7.46 nM
IC50 of Ca2+ response; MDA-MB-231 with CXCR4+ADCYAP1R1; CXCL12 20 nM + PACAP-38 1 nM; + PACAP-(6-38) 1 µM (CXCR4 (human)): 19.6 nM
IC50 of Ca2+ response; MDA-MB-231 with CXCR4+ADCYAP1R1; CXCL12 20 nM + PACAP-38 1 nM; no ADCYAP1R1 inhibitor (CXCR4 (human)): 213 nM
IC50 of Ca2+ response; MDA-MB-231 with CXCR4+C5AR1; CXCL12 20 nM + C5a 0.03 nM; + W54011 10 µM (CXCR4 (human)): 9.72 nM
IC50 of Ca2+ response; MDA-MB-231 with CXCR4+C5AR1; CXCL12 20 nM + C5a 0.03 nM; no C5AR1 inhibitor (CXCR4 (human)): 118 nM
IC50 of Ca2+ response; MDA-MB-231 with CXCR4+CALCR; CXCL12 20 nM + calcitonin 100 nM; + CT-(8-32) (salmon) 10 µM (CXCR4 (human)): 15.6 nM
IC50 of Ca2+ response; MDA-MB-231 with CXCR4+CALCR; CXCL12 20 nM + calcitonin 100 nM; no CALCR inhibitor (CXCR4 (human)): 1040 nM
Substance: BKT140 (peptide)

BiFC score (CXCR4-VN (human)): 44
Substance: CCR5-VC, P51681 1-352 (receptor; other documents disagree on this pair)

IC50 of Ca2+ response; MDA-MB-231 expressing CXCR4+ADRB2; + carvedilol 10 µM; CXCL12 20 nM + salmeterol 1 µM (CXCR4 (human)): 0.02 nM
IC50 of Ca2+ response; MDA-MB-231 expressing CXCR4+ADRB2; no carvedilol; CXCL12 20 nM + salmeterol 1 µM (CXCR4 (human)): 17.8 nM
IC50 of Ca2+ response; MDA-MB-231 expressing CXCR4 alone; CXCL12 20 nM + salmeterol 1 µM (CXCR4 (human)): 23.9 nM
fold decrease of the IC50 of Ca2+ response in CXCR4-ADRB2 cells on co-treatment with carvedilol (CXCR4 (human)): 890 fold
Substance: TZ14011 (peptide)
